Source: article PMC3798187

Columns and labels:
[1] = molecular target: FLAG-RACK1 WD1–4 (human RACK1 in which WD40 domains 5 to 7 have been deleted) (human); test: co-IP; anti-FLAG immunoprecipitation (protein A magnetic beads) from extracts of mRNA-injected Xenopus embryos in EB buffer, 1 h at 4°C; Western blots with anti-xMELK, anti-RACK1, anti-FLAG or anti-myc antibodies; uninjected embryos as control
[2] = molecular target: FLAG-RACK1 WD5–7 (human RACK1 in which WD40 domains 1 to 4 have been deleted) (human); test: as above

fold of myc-xMELK co-immunoprecipitated (myc/FLAG ratio) compared to full length FLAG-RACK1 [1]: 2.1 times
fold of myc-xMELK co-immunoprecipitated (myc/FLAG ratio) compared to full length FLAG-RACK1 [2]: 0.7 times
Substance: myc-tagged xMELK (from UniProt Q91821 1-651) (enzyme)
